Measured values reported in doi:10.1101/2023.04.26.538363 (bioRxiv, 2023).
Changes are numbered by the printed parent chain. Numbers in names are those of the source.

B1: Escherichia coli inclusion body-associated protein A, wild type (natural protein)
chain: MRNFDLSPLYRSAIGFDRLFNHLENNQSQSNGGYPPYNVELVDENHYRIAIAVAGFAESELEITAQDNLLVVKGAHADEQKERTYLYQGIAERNFERKFQLAENIHVRGANLVNGLLYIDLERVIPEAKKPRRIEIN
B2: Escherichia coli IbpA R93A mutant (natural protein)
chain: B1 chain with R93A

Tests used:
[1] = target: T1, Escherichia coli inclusion body-associated protein B (E. coli, UniProt P0C058 1-142); test: sucrose density gradient centrifugation
T1 sequence: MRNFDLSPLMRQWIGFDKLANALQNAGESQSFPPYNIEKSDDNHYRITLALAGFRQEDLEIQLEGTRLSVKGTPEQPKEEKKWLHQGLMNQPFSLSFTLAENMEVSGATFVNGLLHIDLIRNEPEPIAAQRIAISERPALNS

[2] = target: the molecule itself; test: sucrose density gradient centrifugation

Binder	binding result [1]	binding result [2]
B1	binds	binds
B2	binds	binds
